The record followed here is patent US20180214514A1 (GEORGETOWN UNIVERSITY, published 2018).

First the molecules themselves.
B1: human recombinant FGFR1 Fc chimera (Fc fusion, UniProt P11362 22-376, looked up)
chain: RPSPTLPEQAQPWGAPVEVESFLVHPGDLLQLRCRLRDDVQSINWLRDGVQLAESNRTRITGEEVEVQDSVPADSGLYACVTSSPSGSDTTYFSVNVSDALPSSEDDDDDDDSSSEEKETDNTKPNRMPVAPYWTSPEKMEKKLHAVPAAKTVKFKCPSSGTPNPTLRWLKNGKEFKPDHRIGGYKVRYATWSIIMDSVVPSDKGNYTCIVENEYGSINHTYQLDVVERSPHRPILQAGLPANKTVALGSNVEFMCKVYSDPQPHIQWLKHIEVNGSKIGPDNLPYVQILKTAGVNTTDKEMEVLHLRNVSFEDAGEYTCLAGNSIGLSHHSAWLTVLEALEERPAVMTSPLYLE
notes: It was immobilized on a CM-5 SPR chip; not shown: Fc part of the chimera
B2: MBP-tagged C66 fusion protein (C-terminal 66-amino acid FGF-binding domain of human BP3) (other, not shown: large carriers)
chain: APPKENPSERKTNEGKRKAALVPNEERPMGTGPDPDGLDGNAELTETYCAEKWHSLCNFFVNFWNG
notes: MBP fusion with an apparent molecular mass of 52 kDa; also called C66 fragment; C-terminal hBP3 region

Assay [1] addresses T1, MBP-tagged recombinant human FGFBP3 (MBP-BP3) (human, UniProt P0AEX9 27-392 = MBP, limits assumed).
T1 construct: Bacterially expressed MBP fusion; The order MBP then BP3 follows the pMAL-p2X vector design; also called hBP3
As to the kind of experiment: SPR, BP3 over immobilized FGFR1 Fc chimera (FIG. 6B). As for the experimental part: (§1) Biacore T200 instrument (GE Healthcare) was used for surface plasmon resonance measurements. Human recombinant FGFR4 or FGFR1 Fc chimera in HBS-P buffer (0.01 M HEPES pH 7.4, 0.15 M NaCl, 0.05% P-20) were immobilized on a flow cell of a CM-5 sensor chip (GE Healthcare, Piscataway, N.J.) via amine coupling. A blank flow cell was used as a negative control for non-specific binding to the sensor surface. […] Dissociation constants were calculated from the association and dissociation rates of the proteins after washing. The experiments were performed in triplicate.
On the technique in general: SPR reads the build-up and loss of mass on a sensor chip optically.

For assay [2], the target named is T2, human recombinant FGF19 (human, UniProt O95750 25-216).
T2 construct: Bought recombinant protein; also called fibroblast growth factor 19
T2 sequence (O95750 25-216 limits assumed): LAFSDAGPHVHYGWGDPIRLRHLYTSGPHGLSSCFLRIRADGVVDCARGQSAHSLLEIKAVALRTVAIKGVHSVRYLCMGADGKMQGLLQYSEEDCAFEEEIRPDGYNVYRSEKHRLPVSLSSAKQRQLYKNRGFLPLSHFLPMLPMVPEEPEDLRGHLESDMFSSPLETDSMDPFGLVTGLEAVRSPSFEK
Briefly: SPR, C66 over immobilized FGF19 (FIG. 7B).

Assay [3] deals with T3, human recombinant FGFR4 Fc Chimera (human, UniProt P22455 22-369).
T3 construct: Bought reagent; It was immobilized on ELISA plates and on a CM-5 SPR chip; also called FGF Receptor 4; fibroblast growth factor receptor 4; Fc part of the bought chimera not given
As to the kind of experiment: SPR, C66 over immobilized FGFR4 (FIG. 7B). The method, then: as §1

Assay [4] addresses B1. Briefly: SPR, equilibrium binding to immobilized FGFR1 Fc chimera (FIG. 7C). The method, then:
as §1

In the case of B1, the binding result in assay [1] is reported as “no binding (tested: 4, 2, or 1 nM)”.

Take B2: the binding result in assay [2] is “binds”; in assay [3], “no binding (tested: 245 nM)”; in assay [4], “no binding (tested: 245 nM)”.
